Measured values: the nanobody polyreactivity screen of Harvey et al. (2022)

Test: yeast display, Sf9 membrane polyspecificity reagent, FACS + sequencing; frameworks hold sequencing errors
In short: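 Nanobodies from a synthetic yeast display library (Saccharomyces cerevisiae BJ5465), induced 36–48 hours with galactose, were stained 1 hour at 4 °C with 10% biotinylated, detergent-solubilized Sf9 membrane reagent, enriched on streptavidin microbeads, then FACS-sorted. Anti-HA (expression) and streptavidin (reagent binding) fluorescence set low and high (top ~1%) gates. Polyreactivity labels come from the gate of origin. Genes were colony-PCR amplified, MiSeq 2 × 250 sequenced and filtered by CDR length.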

QVQLVESGGCLVQAGGSLRLSCASSGFTIWQNAMGWYRQAPGKERELVAGIRLSGGSTYADSEKGRFTISRDNAKNTVYLQMNSLKPEDTAVYYCAARIAGYYRYRSLRYDYWGQGTQGTVSS
polyreactivity (PSR sort gate): high polyreactivity
